From the supplement of paper PMC10567573

B1: MAGEA6 (parent)
chain: KISGGPRISYPLLHEWALREGEE
B2: ZNF8 (parent)
chain: VHVIGVEEPSVGASMLFDIREST

Variants of: B1
Assay: protein stability index of a GFP-peptide fusion (GPS, HEK-293T) (PSI 1-6); higher = more stable
Conditions: c terminus: native
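Also: lentivirally expressed fusions sorted by FACS into six bins by GFP to DsRed ratio, PSI derived from sequencing read proportions per bin multiplied by bin number.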

Row | Variant | protein stability index
1 | L18Q | 1.63
2 | L18S | 2.31
3 | L18K | 2.72
4 | L18W | 2.78
5 | L18I | 2.98
6 | L18T | 2.04
7 | L18N | 2.16
8 | L18E | 3.11
9 | G5A | 2.31
10 | G5H | 1.73
11 | G5C | 3.47
12 | G5D | 2.6
13 | G5T | 3.04
14 | G5F | 2.74
15 | G5Y | 3.51
16 | G5K | 2.48
17 | A17N | 3.69
18 | A17D | 1.28
19 | A17P | 1.02
20 | A17C | 3.28
21 | A17E | 3.55
22 | P11L | 2.3
23 | P11R | 3.25

Row | Variant | protein stability index
24 | P11V | 2.1
25 | P11M | 2.61
26 | P11I | 2.41
27 | P11E | 3.27
28 | P11S | 2.66
29 | P11Q | 2.63
30 | P11H | 2.24
31 | E22W | 1.87
32 | E22S | 2.12
33 | E22F | 2.75
34 | E22G | 2.18
35 | E22Y | 2.29
36 | E22R | 3.04
37 | E22D | 3.35
38 | E22P | 1.85
39 | E22M | 2.19
40 | E22C | 1.88
41 | E22H | 2.49
42 | E22L | 2.44
43 | E22Q | 3.01
44 | E22A | 2.4
45 | E22I | 2.37
46 | E22N | 2.53

Row | Variant | protein stability index
47 | E22V | 1.06
48 | E22T | 2.36
49 | K1D | 3.3
50 | K1F | 1.67
51 | K1W | 2.14
52 | K1N | 2.62
53 | K1Q | 2.35
54 | I2P | 3.29
55 | I2D | 4
56 | I2W | 2.41
57 | I2C | 2.55
58 | R7G | 2.84
59 | R7P | 2.65
60 | R7I | 4.03
61 | R7L | 1.92
62 | S9L | 3.34
63 | S9F | 1.61
64 | S9C | 3.18
65 | I8A | 1.95
66 | I8P | 2.24
67 | I8G | 3.28
68 | I8M | 2
69 | I8Y | 2.6

Row | Variant | protein stability index
70 | I8C | 2.79
71 | I8Q | 2.06
72 | G21K | 3.31
73 | G21C | 3.26
74 | G21Y | 2.4
75 | G21D | 4.14
76 | L12H | 2.3
77 | L12G | 5.59
78 | L12T | 2.23
79 | L12F | 3.78
80 | L12A | 4.05
81 | H14V | 3.6
82 | H14S | 3.4
83 | H14P | 3.11
84 | S3M | 2.63
85 | S3W | 2.02
86 | S3T | 1.81
87 | L13W | 3.38
88 | L13Q | 2.27
89 | L13M | 1.77
90 | L13N | 2.95
91 | L13Y | 1.19
92 | G4S | 5.95

Row | Variant | protein stability index
93 | G4I | 3.06
94 | G4T | 4.54
95 | G4V | 1.61
96 | G4C | 3.34
97 | G4W | 2.78
98 | G4P | 5.66
99 | E23T | 2.25
100 | E23M | 2.17
101 | E23P | 1.89
102 | E23Y | 2.56
103 | E23Q | 2.48
104 | E23G | 2.41
105 | E23W | 1.94
106 | E23D | 3.38
107 | E23H | 2.73
108 | E23F | 2.43
109 | E23R | 1.88
110 | E23A | 1.23
111 | E23N | 2.73
112 | E23I | 1.74
113 | E23C | 1.64
114 | E23K | 2.88
115 | E23L | 2.27

Row | Variant | protein stability index
116 | Y10K | 3.2
117 | Y10L | 3.04
118 | Y10Q | 3.78
119 | Y10H | 2.83
120 | P6A | 2.25
121 | P6K | 1.55
122 | P6G | 1.91
123 | P6N | 3.51
124 | P6I | 3.5
125 | P6R | 3.64
126 | P6T | 2.8
127 | P6S | 2.73
128 | P6C | 2.05
129 | W16N | 2.54
130 | W16F | 2.74
131 | W16H | 2.26
132 | W16T | 1.89
133 | W16Y | 4.84
134 | W16C | 2.94
135 | W16L | 4.59
136 | W16S | 2.33
137 | W16P | 2.49
138 | R19L | 3.32

Row | Variant | protein stability index
139 | R19C | 2.87
140 | R19N | 1.43
141 | R19T | 3.74
142 | R19G | 2.67
143 | R19H | 3.42
144 | R19E | 2.29
145 | R19K | 2.08
146 | R19A | 2.07
147 | R19P | 2.18
148 | R19D | 2.96
149 | R19F | 2.64
150 | E15G | 3.53
151 | E15N | 2.31
152 | E15K | 3.16
153 | E15I | 2.14
154 | E20S | 4.57
155 | E20N | 2.34
156 | E20V | 3.06
157 | E20K | 3.74
158 | E20W | 2.32
159 | E20T | 2.92
160 | E20L | 3.74
161 | E20P | 2.36

Variants of: B2
Assay: as above
Conditions: c terminus: native

Row | Variant | protein stability index
162 | V6P | 1.82
163 | V6W | 1.76
164 | V6N | 3.61
165 | V6M | 1.76
166 | V6K | 2.61
167 | V6D | 3.75
